The target of series [1] is T1, SK-FBD(1,2) chimeric protein.
T1 chain: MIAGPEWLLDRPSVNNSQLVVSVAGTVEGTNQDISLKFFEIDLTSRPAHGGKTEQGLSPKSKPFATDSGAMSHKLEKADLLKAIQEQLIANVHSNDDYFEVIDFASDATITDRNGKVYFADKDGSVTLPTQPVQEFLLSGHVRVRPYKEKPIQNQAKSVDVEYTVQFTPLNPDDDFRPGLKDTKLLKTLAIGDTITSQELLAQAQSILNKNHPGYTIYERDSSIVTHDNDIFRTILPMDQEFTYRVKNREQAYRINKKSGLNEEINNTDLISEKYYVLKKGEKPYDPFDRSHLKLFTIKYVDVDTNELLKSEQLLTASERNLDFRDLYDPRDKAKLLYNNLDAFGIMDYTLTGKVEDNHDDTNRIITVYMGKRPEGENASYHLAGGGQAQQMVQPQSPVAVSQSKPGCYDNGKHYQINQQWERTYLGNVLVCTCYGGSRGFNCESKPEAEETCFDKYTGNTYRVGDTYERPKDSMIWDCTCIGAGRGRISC

For series [2], the target named is FBD(4,5)-SK chimeric protein.
Series [3] has as its target SK-FBD(4,5) chimeric protein, SK[residues 1-383]-(gly-gly-gly)-[FBD(4,5)].
Series [4] deals with T2, native SK from Streptococcus sp. (ATCC 12449).
T2 chain: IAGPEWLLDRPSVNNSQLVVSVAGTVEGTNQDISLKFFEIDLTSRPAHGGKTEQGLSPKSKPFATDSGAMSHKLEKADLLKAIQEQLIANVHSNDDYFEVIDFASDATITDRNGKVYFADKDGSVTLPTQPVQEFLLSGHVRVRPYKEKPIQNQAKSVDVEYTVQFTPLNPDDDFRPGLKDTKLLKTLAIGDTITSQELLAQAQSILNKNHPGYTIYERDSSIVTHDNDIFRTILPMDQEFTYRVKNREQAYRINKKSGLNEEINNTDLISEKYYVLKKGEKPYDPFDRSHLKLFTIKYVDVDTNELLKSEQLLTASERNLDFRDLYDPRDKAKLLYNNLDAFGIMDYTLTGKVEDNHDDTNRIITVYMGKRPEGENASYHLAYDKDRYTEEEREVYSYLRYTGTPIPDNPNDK

In series [5] the target is FBD(4,5)-SK-FBD(4,5) chimeric protein.
Series [6] concerns the target T3, Met-SK (recombinant SK purified from E. coli).
T3 chain: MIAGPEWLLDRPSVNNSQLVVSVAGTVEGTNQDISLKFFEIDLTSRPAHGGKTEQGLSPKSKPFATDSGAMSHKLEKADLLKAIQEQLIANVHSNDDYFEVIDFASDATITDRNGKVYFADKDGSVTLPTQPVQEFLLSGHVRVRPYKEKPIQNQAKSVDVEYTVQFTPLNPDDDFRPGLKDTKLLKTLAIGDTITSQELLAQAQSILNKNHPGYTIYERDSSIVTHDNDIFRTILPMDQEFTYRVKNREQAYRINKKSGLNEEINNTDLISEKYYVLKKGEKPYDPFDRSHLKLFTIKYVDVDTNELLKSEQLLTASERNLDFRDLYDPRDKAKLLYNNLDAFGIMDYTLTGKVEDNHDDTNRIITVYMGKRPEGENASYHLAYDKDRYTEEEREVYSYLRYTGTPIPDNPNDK

The results in this text go back to patent US7163817.

B1: human plasminogen (protein)
chain: EPLDDYVNTQGASLFSVTKKQLGAGSIEECAAKCEEDEEFTCRAFQYHSKEQQCVIMAENRKSSIIIRMRDVVLFEKKVYLSECKTGNGKNYRGTMSKTKNGITCQKWSSTSPHRPRFSPATHPSEGLEENYCRNPDNDPQGPWCYTTDPEKRYDYCDILECEEECMHCSGENYDGKISKTMSGLECQAWDSQSPHAHGYIPSKFPNKNLKKNYCRNPDRELRPWCFTTDPNKRWELCDIPRCTTPPPSSGPTYQCLKGTGENYRGNVAVTVSGHTCQHWSAQTPHTHNRTPENFPCKNLDENYCRNPDGKRAPWCHTTNSQVRWEYCKIPSCDSSPVSTEQLAPTAPPELTPVVQDCYHGDGQSYRGTSSTTTTGKKCQSWSSMTPHRHQKTPENYPNAGLTMNYCRNPDADKGPWCFTTDPSVRWEYCNLKKCSGTEASVVAPPPVVLLPDVETPSEEDCMFGNGKGYRGKRATTVTGTPCQDWAAQEPHRHSIFTPETNPRAGLEKNYCRNPDGDVGGPWCYTTNPRKLYDYCDVPQCAAPSFDCGKPQVEPKKCPGRVVGGCVAHPHSWPWQVSLRTRFGMHFCGGTLISPEWVLTAAHCLEKSPRPSSYKVILGAHQEVNLEPHVQEIEVSRLFLEPTRKDIALLKLSSPAVITDKVIPACLPSPNYVVADRTECFITGWGETQGTFGAGLLKEAQLPVIENKVCNRYEFLNGRVQSTELCAGHLAGGTDSCQGDSGGPLVCFEKDKYILQGVTSWGLGCARPNKPGVYVRVSRFVTWIEGVMRNN
Regarding B1, the Kplg (Km for HPG), steady-state HPG activation, chromogenic one-stage assay, linear phase after the lag in series [1] turned out to be 0.18 µM; in series [2] it was 0.16 µM; in series [3], 0.15 µM; in series [5] it was 0.2 µM. Further, the Kplg (Km for HPG), steady-state HPG activation, chromogenic one-stage assay in series [4] was 0.14 µM; in series [6], 0.18 µM.
